B1: 1G1 VHH, His-tagged (VHH)
VHH: QVQLQASGGGLVQAGGSLRLSCAASGRTVSSDAMGWFRQAPGKEREFVAAINWNGASTYYGDSAQGRFTISRDNAKNTVYLQMNSLKSEDTAVYYCAASDWVVGGISLMNGAEYKYWGQGTLVTVSS
notes: Clonotype 7; not shown: His tag
B2: 1A10 VHH, His-tagged (VHH)
VHH: QVQLQAFGGGLVQAGGSLGLSCSASGTIFNLDYMGWYRQALGKQRELVATITSDGRTNYADSVKGRFTIFRDGAKNAILMQMNSLKPEDTAVYYCKAYLSGRSDYWGQGTQVTVSS
notes: Clonotype 10; not shown: His tag
B3: 1D6 VHH, His-tagged (VHH)
VHH: QVQLQESGGGSVQAGGSLGLFCSASGTIFNIDVMGWYRQAPGKQRELVATITSDGRTNYADSVKGRFTISRDGAKNAVHVQMNSLKPEDTAVYYCKAYLSGRSDYWGQGTQVTVSS
notes: as for B2
B4: 2D6 VHH, His-tagged (VHH)
VHH: QVQLQESGGGLVQAGASLRLSCAASGRTFSSFMGWFRQAPGKERKFVATINWNGGATGYADSVKGRFTISRDNAKNTLYLQMNSLKPEDTAVYYCAAARTGSAYYTSSDAGEYNYWGQGTQVTVSS
notes: Clonotype 6; not shown: His tag
B5: gap8.3 scFv linked to a human IgG1 Fc domain (scFv, from another filing, V domains shown)
VH: EVQLQQSGPELVKTGASVKISCKASGYSFTGYFIHWVKQSHGKSLEWIGYISCYNGATSYNQKFKGKATFTVDTSSSTAYMQFNSVTSEDSAVYYCVRNYYGNLDAMDYWGQGTSVTVSS
VL: DIVMTQSHKFMSTSVGDRVSITCKASQDVSTAVAWYQQKPGQSPKILIYSASYRYTGVPDRFTGSGSGTDFTFTISSVQAEDLAVYYCQQHYSTPRTFGGGTKLEIK
B6: 4B2 scFv linked to a human IgG1 Fc domain (scFv, from another filing, V domains shown)
VH: GVQLQESGAELARPGASVKMSCKASGYTFTSYTMQWVKQRPGQGLEWIGYINPSSGYIKYNQKFKDKVTLTADKSSTTAYMQLSRLTSEDSAVYYCARRGSYFFDFWGQGTSVTVSS
VL: DIVITQDELSNPVTSGESVSISCRSSKSLLYKDGKTYLNWFLQRPGQSPQLLIYLMSTRASGVSDRFSGSGSGTDFTLEISRVKAEDVGVYYCQQLVEYPFTFGGGTKLEVK
B7: gap8.3 anti-CD45 antibody, recombinant mouse IgG2a (antibody, from another filing, V domains shown)
VH: B5 VH
VL: B5 VL
B8: 4B2 anti-CD45 antibody, recombinant mouse IgG2a (antibody, from another filing, V domains shown)
VH: B6 VH
VL: B6 VL
B9: 2C5 VHH monomeric Fc fusion (Fc fusion)
VHH: QVQLQEFGGGLVQAGASLRLSCAASGGTFSYFMGWFRQAPGKEREFVATINRNGGATGYADSVKGRFTISRDNAKNTLYLQMDSVTPEDTAVYYCAAARESSVYYTSTDPAEYGYWGQGTQVTVSS
notes: Clonotype 6; Construct used for SPR; not shown: monomeric Fc tag
B10: 2G4 VHH monomeric Fc fusion (Fc fusion)
VHH: QVQLQEFGGGLVQAGGSLRLSCAASGSISRINAMGWYRQAPGKQRELVAVITSGGSTHYADSVKGRFTISRDNAKNTLYLQMNSLKPEDTAVYYCNGRRKTTGWGSLREWEGSRDPDEYNYWGQGTLVTVSS
notes: Clonotype 2; Construct used for SPR; not shown: monomeric Fc tag
B11: 1A10 VHH monomeric Fc fusion (Fc fusion)
VHH: B2 VHH
notes: Clonotype 10; Construct used for SPR; not shown: monomeric Fc tag
B12: 1D6 VHH monomeric Fc fusion (Fc fusion)
VHH: B3 VHH
notes: as for B11
B13: 2H7 VHH monomeric Fc fusion (Fc fusion)
VHH: QVQLQESGGGLVQAGGSLRLSCAASGRTFSTHAMGWFRQAPGKEREFVAAIAWSGGSTYYADSVKGRFTISRDISKNTIYLQMNSLKPEDTALYYCAATNGGAWHYHERYFGSWGQGTLVTVSS
notes: Clonotype 8; Construct used for SPR; not shown: monomeric Fc tag
B14: 1E4 VHH monomeric Fc fusion (Fc fusion)
VHH: QVQLQESGGGLVQPGGSLRLSCAASGGTFSDYGMGWFRQAPGKEREFVSSISWSGNSVYYAGAVRGRFTISRDNAKNTVYLQMNSLQPEDTAVYYCAASSTWNNNDPTEYEYWGQGTLVTVSS
notes: Clonotype 3; Construct used for SPR; not shown: monomeric Fc tag
B15: 1G1 VHH monomeric Fc fusion (Fc fusion)
VHH: B1 VHH
notes: Clonotype 7; Construct used for SPR; not shown: monomeric Fc tag
B16: 2F8 VHH monomeric Fc fusion (Fc fusion)
VHH: QVQLQQFGGGLVQAGGSLRLSCAASGRTFSGYAMGWFRQAPGKEREFVAAINWSGGSTYYADSVKGRYTISRDNAKNTGYLQMNSLKSEDTAVYYCAASDWVVGGISLMNGAEYKYWGQGTLVTVSS
notes: as for B15

What is called Kd is a measure of binding affinity in units of concentration. Higher therefore signals weaker binding.

The target in one test is T1, hCD45 D1 domain displayed on yeast as Aga2 fusion (human).
T1 construct: not shown: Aga2p anchor protein for yeast surface expression
T1 chain: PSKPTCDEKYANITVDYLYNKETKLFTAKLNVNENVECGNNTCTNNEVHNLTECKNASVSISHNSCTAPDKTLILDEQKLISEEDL
Nature of the test: epitope mapping (yeast display) and affinity studies; grade in column Notes. On the procedure: (§1) CD45 domains described in FIG. 2 were fused to the C-term of Aga2 with an N-term FLAG and C-term c-Myc tag. Yeast constructs were expressed on the surface of yeast (S. cervisiae ATCC strain YVH10). Yeast were grown overnight at 30C in synthetic selective media SD-SCAA, then induced again overnight at 20° C. in SG-SCAA. Yeast were incubated with individual a-CD45 antibodies or a-CD45 VHH for 60 minutes on ice, washed, and incubated with anti-mouse/anti-human Fc or anti-VHH Alexa647 secondary antibody as well as an anti-FLAG or anti-c-Myc Alexa488 secondary antibody. Labeled yeast were analyzed by flow cytometry on a Beckman Coulter Cytoflex® and analyzed using the FlowJo® software package.
(§2) The results of the epitope mapping of the VHHs described above conducted in substantial accordance with the teaching of Example 3 and the affinity measurements conducted in substantial accordance with the teaching of Example 4 above are summarized in the following Table 7 and the sequences of the VHHs and corresponding CDRs are provide in Table 4 above: […]
Turning to B1, the binding result is “binds”.

In the next test the target is T2, hCD45 D3 domain displayed on yeast as Aga2 fusion (human).
T2 construct: not shown: Aga2p anchor protein for yeast surface expression
T2 chain: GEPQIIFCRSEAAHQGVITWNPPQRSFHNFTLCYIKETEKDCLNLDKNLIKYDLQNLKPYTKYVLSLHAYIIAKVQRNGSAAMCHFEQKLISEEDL
The test is described as above. As to the method: as §1, §2
On to B2, for which the binding result was “binds”.

On to B3, for which the binding result is on record as “binds”.

The target in another test is T3, hCD45 D4 domain displayed on yeast as Aga2 fusion (human, UniProt P08575 479-571).
T3 construct: not shown: Aga2p anchor protein for yeast surface expression
T3 sequence: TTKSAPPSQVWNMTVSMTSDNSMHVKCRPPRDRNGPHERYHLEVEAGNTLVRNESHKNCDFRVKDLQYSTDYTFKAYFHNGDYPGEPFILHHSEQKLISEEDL
The test is described as above. As to the method: as §1, §2
B4: the binding result is “binds”.

In another test the target is human CD45 D1-D4 (amino acids 194-578) with C-terminal 8xHis tag (human) (UniProt P08575). Nature of the test: SPR, Biacore T200, single cycle kinetics; scFv-Fc captured on Protein A chip, CD45 D1-D4 as analyte.
“9.4 scFv linked to a human IgG1 Fc domain” came in with a Kd of 18 nM. This lies in the double-digit nanomolar range. The same measure, in the same setting: the figure for B5 is 40 nM; for B6 it is 12 nM.

For another test the target is unchanged. Briefly: SPR, Biacore T200, single cycle kinetics; IgG captured on Protein A chip, CD45 D1-D4 as analyte. A general note: In SPR one partner is held on a chip, and binding of the other changes the refractive index at the surface.
Molecule “9.4 anti-CD45 antibody, recombinant mouse IgG2a” gave a Kd of 2.4 nM. That is a single-digit nanomolar value. Same read-out and setting: the figure for B7 is 21 nM; for B8 it is 17 nM.

A further test has as its target T4, human CD45 D1-D4 (amino acids 194-578) with C-terminal 8xHis tag (human, UniProt P08575 194-578).
T4 construct: Made in house in expi293 cells; SPR analyte; also called D1-D4 region of human CD45RO
T4 sequence: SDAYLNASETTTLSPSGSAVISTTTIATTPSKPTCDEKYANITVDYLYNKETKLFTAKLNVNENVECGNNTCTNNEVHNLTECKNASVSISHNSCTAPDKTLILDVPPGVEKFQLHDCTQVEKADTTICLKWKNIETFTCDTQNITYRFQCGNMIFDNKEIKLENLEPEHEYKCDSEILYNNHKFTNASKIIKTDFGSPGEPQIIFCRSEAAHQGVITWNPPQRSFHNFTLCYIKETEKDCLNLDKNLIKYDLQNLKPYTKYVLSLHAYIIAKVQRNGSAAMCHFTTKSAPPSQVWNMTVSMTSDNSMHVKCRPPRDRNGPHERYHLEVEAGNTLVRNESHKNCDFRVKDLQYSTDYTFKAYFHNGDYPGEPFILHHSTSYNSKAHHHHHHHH
Nature of the test: SPR, Biacore T200, single cycle kinetics; VHH monomeric Fc fusion captured on Protein A chip, CD45 D1-D4 as analyte. As to the method:
The yeast display system as described above was employed to domain map the VHH binding sites. For labeling, His-tagged VHH proteins were incubated with the yeast and detected using an anti-VHH antibody. Seven VHH clonotypes bound across all four domains of CD45RO, with clonotypes 3, 4, and 7 targeting the D1 and D2 domains, clonotype 10 binding the D3 domain, clonotypes 2, 6, and 8 interacting with the D4 domain (Table 3).
Affinities were determined using a Biacore T200 instrument by measuring Kon/Koff in single cycle kinetics mode. Hybridoma clones were either reformatted and expressed in the form of the parent IgG (gap8.3, 4B2, 9.4 as murine IgG2A, VHE as human IgG1), and scFvs were expressed as human IgG1 Fc fusions. For the anti-CD45 VHH, proteins were expressed as monomeric Fc fusions. […] Human CD45 D1-D4 was generated in house with a C-terminal 8×His tag (SEQ ID NO: 610) and expressed and purified from expi293 cells by standard Ni- and SEC chromatography methods. Kinetic affinity constants were calculated using the Biacore® T200 software package.
Turning to B9, the affinity, expressed as Kd, was 1.4 nM. For the molecule B10, the Kd is 8.3 nM.

In the case of B11, the Kd was 32 nM. The same measure, in the same setting: in the case of B12 it was 522 nM; in that of B13, 0.88 nM; in that of B14, 299 nM. Same read-out and setting: in the case of B15 it was 28 nM; in that of B16, 69 nM.

Source of the values: patent US20230357424A1 (published 2023).
